Results: patent US20210079060A1 (ALETA BIOTHERAPEUTICS, published 2021)
“And” between values parts separate entries of the source, which are not always exact repeats. Equal entries are not always repeated.

T1: Clec12A (human, UniProt Q5QGZ9 1-265)
T1 construct: whole, on cells; also called CLL-1; MICL
T1 sequence (looked up): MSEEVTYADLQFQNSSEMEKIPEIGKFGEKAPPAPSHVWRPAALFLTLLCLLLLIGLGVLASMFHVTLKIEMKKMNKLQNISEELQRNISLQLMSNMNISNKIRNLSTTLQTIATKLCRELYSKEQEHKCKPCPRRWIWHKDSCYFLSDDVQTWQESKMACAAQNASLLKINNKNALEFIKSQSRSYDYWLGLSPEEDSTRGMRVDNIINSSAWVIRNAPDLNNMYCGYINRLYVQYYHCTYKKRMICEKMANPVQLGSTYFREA

T2: CD20 (UniProt P11836 1-297, limits assumed)
T2 construct: whole, on cells; also called CD20 positive HEK293 cells
T2 sequence (looked up): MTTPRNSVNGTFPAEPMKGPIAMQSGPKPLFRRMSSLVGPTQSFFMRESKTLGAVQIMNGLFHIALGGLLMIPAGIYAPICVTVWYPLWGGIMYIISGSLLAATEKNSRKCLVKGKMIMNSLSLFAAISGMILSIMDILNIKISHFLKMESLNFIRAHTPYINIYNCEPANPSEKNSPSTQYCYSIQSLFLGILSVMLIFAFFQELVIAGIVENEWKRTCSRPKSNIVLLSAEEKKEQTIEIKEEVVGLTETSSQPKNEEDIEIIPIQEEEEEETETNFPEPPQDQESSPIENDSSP


Assays:
[1] = target: T1, Clec12A; assay: sandwich ELISA: coated with FMC63, construct titrated, followed by Clec12A-bio, detected by HRP-SA
[2] = target: T2, CD20; assay: binding to CD20 positive cells; unit as printed in the table; it follows from 22.34 ug/ml and MW 210.8 kDa, while the curve's axis is in ng/ml
[3] = target: T2, CD20; assay: binding to CD20 positive cells; unit as printed in the table, but the x-axis of the curve is in ng/ml and the half-maximum lies near 20 on it
[4] = target: T2, CD20; assay: FACS on CD20 positive HEK293 cells, detected with FMC63-PE
[5] = target: T2, CD20; assay: binding to CD20 positive HEK293 cells (method of the fit not stated)
[6] = target: T2, CD20; assay: binding to CD20 positive HEK293 cells (method of the fit not stated); scFv-based construct #302 (Leu16 scFv), not the full mAb
[7] = target: T2, CD20; assay: FACS on 293T cells transfected with CD20, FMC63-PE detection

Binder	binding result [1]	EC50 [2] [nM]	EC50 [3] [µg/mL]	EC50 [4]	Kd [5] [nM]	Kd [6] [nM]	EC50 [7]
#320 (VHH, also called construct #320; CD19 mutant #2-G4Sx4-anti CLEC12a VHH 1B11 myc His) fusion protein, single chain: PEEPLVVKVEEGDTAVLPCLKGTSDGPTQQLTWSRESPLKPFLKYSLGVPGLGVHVRPDAISVVIRNVSQQMGGFYLCQPGPPSEKAWQPGWTVNVEGSGELFRWNVSDLGGLGCGLKNRSSEGPSSPSGKLMSPKLYVWAKDRPEIWEGEPPCLPPRDSLNQSLSQDLTMAPGSTLWLSCGVPPDSVSRGPLSWTHVHPKGPKSLLSLELKDDRPAREMIVDETGLLLPRATAQDAGKWYCSRGNVTTSYHLEITARPVKAHSDLRTGGWKGGGGSGGGGSGGGGSGGGGSAVQLQESGGGLVQAGGSLRLSCAASGSDRSINVMNWYRQAPGKQRELVAAITSGGTTNYAQSVKGRVTISRDSAKNTVYLQMNSLKPEDTAVYFCKADTRWGGMYWGPGTQVTVSSTSGPGGQGAEQKLISEEDLGAHHHHHHGAS	no binding (tested: 1 ug/ml)						
Rituximab-CD19 construct (#377/378) (antibody, human IgG1, kappa, also called Rituximab-based construct; wild type Rituximab-CD19 construct) light: QIVLSQSPAILSASPGEKVTMTCRASSSVSYIHWFQQKPGSSPKPWIYATSNLASGVPVRFSGSGSGTSYSLTISRVEAEDAATYYCQQWTSNPPTFGGGTKLEIKRTVAAPSVFIFPPSDEQLKSGTASVVCLLNNFYPREAKVQWKVDNALQSGNSQESVTEQDSKDSTYSLSSTLTLSKADYEKHKVYACEVTHQGLSSPVTKSFNRGECGGGGSGGGGSGGGGSGGGGSPEEPLVVKVEEGDTAALWCLKGTSDGPTQQLTWSRESPLKPFLKYSLGVPGLGVHVRPDAISVVIRNVSQQMGGFYLCQPGPPSEKAWQPGWTVNVEGSGELFRWNVSDLGGLGCGLKNRSSEGPSSPSGKLMSPKLYVWAKDRPEIWEGEPPCLPPRDSLNQSLSRDLTVAPGSTLWLSCGVPPDSVSRGPLSWTHVHPKGPKSLLSLELKDDRPARDMWVMGTSLMLPRATAQDAGKWYCHRGNLTMSFHLEITARPSRHHHHHH heavy: not shown		106	22.3	0.00343 µg/mL and 0.0163 nM	~0.016		
anti-CD20 scFv-CD19 D1+2 C term mutant #2 (scFv, scFv of anti-CD20 mAb Leu16 fused to a CD19 variant; also called Leu16scFv-CD19 construct) QVKLQESGAELVKPGASVKMSCKASGYTFTSYNMHWVKQTPGQGLEWIGAIYPGNGDTSYNQKFKGKATLTADKSSSTAYMQLSSLTSEDSADYYCARSNYYGSSYWFFDVWGQGTTVTVSSASTGGGGSGGGGSGGGGSDIELTQSPTILSASPGEKVTMTCRASSSVNYMDWYQKKPGSSPKPWIYATSNLASGVPARFSGSGSGTSYSLTISRVEAEDAATYYCQQWSFNPPTFGGGTKLEIKRAAAGGGGSGGGGSGGGGSGGGGSPEEPLVVKVEEGDTAALWCLKGTSDGPTQQLTWSRESPLKPFLKYSLGVPGLGVHVRPDAISVVIRNVSQQMGGFYLCQPGPPSEKAWQPGWTVNVEGSGELFRWNVSDLGGLGCGLKNRSSEGPSSPSGKLMSPKLYVWAKDRPEIWEGEPPCLPPRDSLNQSLSRDLTVAPGSTLWLSCGVPPDSVSRGPLSWTHVHPKGPKSLLSLELKDDRPARDMWVMGTSLMLPRATAQDAGKWYCHRGNLTMSFHLEITARPSRHHHHHH				0.161 µg/mL and 2.78 nM		~3	0.0754 µg/mL and 1.3 nM
